From patent publication US20230143091A1 (SORRISO PHARMACEUTICALS, published 2023)

T1: IL-7R (as used in the IL-7/IL-7R neutralisation ELISA) (UniProt P16871 21-239, limits assumed)
T1 sequence (looked up): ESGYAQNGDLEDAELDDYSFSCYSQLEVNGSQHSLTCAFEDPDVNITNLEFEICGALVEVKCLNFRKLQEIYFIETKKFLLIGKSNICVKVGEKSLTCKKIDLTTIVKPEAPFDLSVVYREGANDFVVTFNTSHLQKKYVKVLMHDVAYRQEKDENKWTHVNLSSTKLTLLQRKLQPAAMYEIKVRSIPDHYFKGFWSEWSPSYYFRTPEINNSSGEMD

T2: IL-7R on human lymphocytes (hPBMCs) (human, UniProt P16871 21-459)
T2 sequence (looked up): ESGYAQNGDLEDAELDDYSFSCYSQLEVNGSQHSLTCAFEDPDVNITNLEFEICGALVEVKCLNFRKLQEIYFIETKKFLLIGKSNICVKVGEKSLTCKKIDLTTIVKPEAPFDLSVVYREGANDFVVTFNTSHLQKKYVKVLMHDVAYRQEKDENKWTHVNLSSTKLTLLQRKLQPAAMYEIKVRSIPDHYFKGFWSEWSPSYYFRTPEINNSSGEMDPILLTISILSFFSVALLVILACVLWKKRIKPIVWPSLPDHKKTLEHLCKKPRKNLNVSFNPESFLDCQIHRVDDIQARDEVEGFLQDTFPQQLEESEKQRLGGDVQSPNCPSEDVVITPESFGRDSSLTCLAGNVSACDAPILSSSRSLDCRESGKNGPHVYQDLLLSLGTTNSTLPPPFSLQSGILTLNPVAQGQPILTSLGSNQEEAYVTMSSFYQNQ


Tests used:
[1] = target: T1, IL-7R (as used in the IL-7/IL-7R …); assay: IL-7/IL-7R neutralisation ELISA; blocked ligand IL-7, bound IL-7 detected with biotinylated anti-hIL-7 and Extravidin-HRP
[2] = target: T3, human TNFα (human, UniProt P01375 77-233); assay: competition ELISA on plate-coated human TNFα; competitor 2 nM biotinylated adalimumab, detected with ExtrAvidin-HRP
T3 construct: also called TNF-alpha; Tumour necrosis factor-alpha
Description: ELISA plates were coated with 100 ng/mL human TNFα in 250 μg/mL bovine serum albumin (BSA) in phosphate buffered saline (1×PBS) and blocked with 1% BSA in 1×PBS.

[3] = target: T2, IL-7R on human lymphocytes (hPBMCs); assay: cell-based or functional assay

T3 sequence (P01375 77-233 limits assumed): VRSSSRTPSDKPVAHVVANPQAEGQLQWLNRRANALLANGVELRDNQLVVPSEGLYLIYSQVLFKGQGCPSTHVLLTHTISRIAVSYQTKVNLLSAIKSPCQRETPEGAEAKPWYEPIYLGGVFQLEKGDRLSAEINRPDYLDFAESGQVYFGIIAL

IC50 (read off the curve) [1] [nM]	Binder	other results
~0.2	FU3K bihead (bispecific antibody, Produced in S. cerevisiae; also called pre-digestion FU3K; heterobihead) DVQLVESGGGLVQPGGSLKLSCAASGFDFSSHWMYWVRQAPGKELEWLSEINTNGLITHYGDSVKGRFTVSRNNAANKMYLELTRLEPEDTALYYCARNQHGLNKGQGTQVTVSSGGGGSGGGGSKGGGGSGGGGSEVQLVESGGGLVQAGGSLRLSCESSISTFSSDAMGWFRQAPGKELEFLAAIGWSGAVTHYSDSVKGRFTISRDNAKNTVYLQMNSLRAEDTGRYYCAEDYDTDVWQYWGQGTQVTVSS	–
~0.4	FU3K after trypsin digestion (other, A mixture of two separate monomers, not a complex; also called post-digestion FU3K; ID-38F and ID-A62U monomer arms released from FU3K) VHH 1: DVQLVESGGGLVQPGGSLKLSCAASGFDFSSHWMYWVRQAPGKELEWLSEINTNGLITHYGDSVKGRFTVSRNNAANKMYLELTRLEPEDTALYYCARNQHGLNKGQGTQVTVSSGGGGSGGGGSK VHH 2: GGGGSGGGGSEVQLVESGGGLVQAGGSLRLSCESSISTFSSDAMGWFRQAPGKELEFLAAIGWSGAVTHYSDSVKGRFTISRDNAKNTVYLQMNSLRAEDTGRYYCAEDYDTDVWQYWGQGTQVTVSS	–
–	ID-38F (VHH) VHH: DVQLVESGGGLVQPGGSLKLSCAASGFDFSSHWMYWVRQAPGKELEWLSEINTNGLITHYGDSVKGRFTVSRNNAANKMYLELTRLEPEDTALYYCARNQHGLNKGQGTQVTVSS	binding result [2]: binds
–	V7R-2E9 (VHH) VHH: EVQLVESGGGLVQAGGSLRLSCESSISTFSSDAMGWFRQAPGKEREFLAAIGWSGAVTHYSDSVQGRFTISRDNAKNTVYLQMNSLKSEDTGRYYCAEDYDTDVWQYWGQGTQVTVSS	IL-7 induced pSTAT5 in hPBMCs EC50 nM [3]: 2.86 nM
0.1 to 0.2	ID-A62U (VHH, Produced in S. cerevisiae; Comprises E1D and R45L mutations relative to ID-A40U) VHH: DVQLVESGGGLVQAGGSLRLSCESSISTFSSDAMGWFRQAPGKELEFLAAIGWSGAVTHYSDSVKGRFTISRDNAKNTVYLQMNSLRAEDTGRYYCAEDYDTDVWQYWGQGTQVTVSS	–
